B1: Galectin-9 (Mus musculus), O08573-2 (parent)
chain: MALFSAQSPYINPIIPFTGPIQGGLQEGLQVTLQGTTKSFAQRFVVNFQNSFNGNDIAFHFNPRFEEGGYVVCNTKQNGQWGPEERKMQMPFQKGMPFELCFLVQRSEFKVMVNKKFFVQYQHRVPYHLVDTIAVSGCLKLSFITFQTQNFRPAHQAPMAQTTIHMVHSTPGQMFSTPGIPPVVYPTPAYTIPFYTPIPNGLYPSKSIMISGNVLPDATRFHINLRCGGDIAFHLNPRFNENAVVRNTQINNSWGQEERSLLGRMPFSRGQSFSVWIICEGHCFKVAVNGQHMCEYYHRLKNLQDINTLEVAGDIQLTHVQT

Variants of: B1
Conditions: with havr2_mouse Havcr2, Q8VIM0
Chain of havr2_mouse Havcr2, Q8VIM0 (Q8VIM0 whole entry): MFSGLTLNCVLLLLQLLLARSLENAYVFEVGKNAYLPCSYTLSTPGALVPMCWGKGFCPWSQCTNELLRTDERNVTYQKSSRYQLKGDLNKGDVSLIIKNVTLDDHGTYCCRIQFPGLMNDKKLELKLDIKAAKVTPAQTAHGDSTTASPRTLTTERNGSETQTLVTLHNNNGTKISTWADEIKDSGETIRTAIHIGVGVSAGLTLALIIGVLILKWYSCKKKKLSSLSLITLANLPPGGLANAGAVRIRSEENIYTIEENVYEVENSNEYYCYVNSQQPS

effect of a mutation on the interaction	Variant
decreasing interaction strength	R238A
decreasing interaction strength	R64A
disrupting interaction strength	R64A;R238A

From IntAct's records for PubMed 16286920
